This note sets out measurements from US20180127487A1 (Sanofi, published 2018).

Assay [1] addresses T1, His-tagged CHIKV E2 LR2006 (Chikungunya virus strain LR2006, UniProt Q8JUX5 326-1220).
T1 construct: also called CHIKV pE2-E1 antigen derived from CHIKV strain LR2006; pE2-E1 target

The target in a further assay is Antigen (E2) (Chikungunya virus). In words: SPR (Biacore T200), His-tagged antigen captured by anti-His antibody, 1:1 model.
The target in assay [2] is T2, recombinant human FcRn (human, UniProt P55899 24-297; P61769 21-119).
T2 construct: also called human FcRn receptor
T2 sequence (P55899 24-297 limits assumed, chain 1 of 2): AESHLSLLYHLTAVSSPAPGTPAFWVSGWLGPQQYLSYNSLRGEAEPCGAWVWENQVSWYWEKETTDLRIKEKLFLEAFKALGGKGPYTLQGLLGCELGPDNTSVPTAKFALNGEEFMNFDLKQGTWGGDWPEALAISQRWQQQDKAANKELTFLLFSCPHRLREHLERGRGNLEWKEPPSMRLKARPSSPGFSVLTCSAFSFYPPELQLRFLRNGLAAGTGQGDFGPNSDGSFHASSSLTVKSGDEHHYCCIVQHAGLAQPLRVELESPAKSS
T2 sequence (P61769 21-119 limits assumed, chain 2 of 2): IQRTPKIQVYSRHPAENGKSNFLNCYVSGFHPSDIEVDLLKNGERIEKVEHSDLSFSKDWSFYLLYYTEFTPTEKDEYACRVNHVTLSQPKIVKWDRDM
In words: SPR, human FcRn immobilised; relative to mAb1.

Assay [3] addresses T3, recombinant mouse FcRn (mouse, UniProt Q61559 22-297; P01887 21-119).
T3 sequence 1: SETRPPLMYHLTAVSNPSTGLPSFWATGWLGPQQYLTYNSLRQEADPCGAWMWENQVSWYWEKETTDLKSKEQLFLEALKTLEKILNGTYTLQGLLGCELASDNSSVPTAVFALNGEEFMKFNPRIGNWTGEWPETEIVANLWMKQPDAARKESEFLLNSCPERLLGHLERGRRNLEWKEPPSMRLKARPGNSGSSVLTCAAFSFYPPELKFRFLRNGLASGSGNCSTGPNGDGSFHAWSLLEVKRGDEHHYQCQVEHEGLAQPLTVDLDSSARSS
T3 sequence 2: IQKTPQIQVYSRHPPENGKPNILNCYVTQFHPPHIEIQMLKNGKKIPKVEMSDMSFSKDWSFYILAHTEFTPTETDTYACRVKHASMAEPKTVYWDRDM
The assay can be described thus: SPR, mouse FcRn immobilised; relative to mAb1.

Assay [4] addresses T4, Recombinant human HPC4-tagged FcγRIII-F158 (human, UniProt P08637 17-208).
T4 construct: also called FcγRIIIaF158; not shown: HPC4 tag
In words: SPR (Biacore 3000), HPC4-tagged FcγRIII-F158 captured on anti-HPC4 CM5 chip, antibody injected 2 min, in duplicate; concentration (900, 300 or 100 nM in the methods) not printed on the sheet.

In assay [5] the target is T2, recombinant human FcRn. In words: SPR (Biacore T200), human FcRn immobilised on CM5 chip.
Assay [6] deals with T3, recombinant mouse FcRn. In words: SPR (Biacore T200), mouse FcRn immobilised on CM5 chip.
Assay [7] addresses T5, Recombinant human HPC4-tagged FcγRIIIa-V158 (human, UniProt P08637 17-208).
T5 construct: Valine at 158 is a polymorphism, named without an old residue; also called Val158; not shown: HPC4 tag
The assay can be described thus: SPR (Biacore 3000), HPC4-tagged FcγRIIIa-V158 captured on anti-HPC4 CM5 chip, antibody injected 2 min, in duplicate; concentration (900, 300 or 100 nM in the methods) not printed on the sheet.

T5 sequence (P08637 17-208 F176V): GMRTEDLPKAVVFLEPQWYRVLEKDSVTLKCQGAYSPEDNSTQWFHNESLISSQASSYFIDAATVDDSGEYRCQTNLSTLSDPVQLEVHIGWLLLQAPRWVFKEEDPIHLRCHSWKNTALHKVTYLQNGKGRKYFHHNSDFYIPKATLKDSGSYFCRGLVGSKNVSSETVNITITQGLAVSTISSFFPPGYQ
T4 sequence (P08637 17-208): as the sequence (P08637 17-208 F176V) above, with V160F counted along it

B1: M104A/G109A (antibody, V domains shown)
VH: QVQLVQSGAEVKKPGASVKVSCKVSGYILSKLSVHWVRQAPGKGLEWMGGSEREDGETVYAQKFQGRISLTEDTSIETAYMELSSLSSEDTAVYYCATGGFWSAIGGNAVDYWGQGTLVTVSS
VL: QAVVTQSPSSLPASVGDRVTITCRASQDIRNNLGWYQQKPGKAPERLIYGTSNLQSGVPSRFSGSGSGTEFTLTISSLQPEDFATYYCLQHNSYPPTFGRGTKVEIKR
notes: also called mAb2 M104A/G109A; double mutant of mAb2 in CDRH3
Consider B1, for which the binding result in assay [1] is given as “no binding”.

B2: mAb12 (antibody, V domains shown)
VH: QVQLVQSGAEVKKPGASVKVSCKVSGYILSKLSVHWVRQAPGKGLEWMGGSEREDGETVYAQKFQGRISLTEDTSIETAYMELSSLSSEDTAVYYCATGGFWSMIGGNAVDYWGQGTLVTVSS
VL: QAVVTQSPSSLPASVGDRVTITCRASQDIRNNLGWYQQKPGKAPERLIYGTSNLQSGVPSRFSGSGSGTEFTLTISSLQPEDFATYYCLQHNSYPPTFGRGTKVEIKR
notes: also called mAb2G109A; mAb2 G109A
Consider B2, for which the Kd with Antigen (E2) was 0.5 nM. For the same molecule, in assay [1], the binding result was “binds”.

B3: M104A/N108Q (antibody, V domains shown)
VH: QVQLVQSGAEVKKPGASVKVSCKVSGYILSKLSVHWVRQAPGKGLEWMGGSEREDGETVYAQKFQGRISLTEDTSIETAYMELSSLSSEDTAVYYCATGGFWSAIGGQGVDYWGQGTLVTVSS
VL: QAVVTQSPSSLPASVGDRVTITCRASQDIRNNLGWYQQKPGKAPERLIYGTSNLQSGVPSRFSGSGSGTEFTLTISSLQPEDFATYYCLQHNSYPPTFGRGTKVEIKR
notes: also called mAb2 M104A/N108Q; double mutant of mAb2 in CDRH3
With B3, the binding result in assay [1] was “no binding”.

B4: mAb2 M104A (antibody, V domains shown)
VH: QVQLVQSGAEVKKPGASVKVSCKVSGYILSKLSVHWVRQAPGKGLEWMGGSEREDGETVYAQKFQGRISLTEDTSIETAYMELSSLSSEDTAVYYCATGGFWSAIGGNGVDYWGQGTLVTVSS
VL: QAVVTQSPSSLPASVGDRVTITCRASQDIRNNLGWYQQKPGKAPERLIYGTSNLQSGVPSRFSGSGSGTEFTLTISSLQPEDFATYYCLQHNSYPPTFGRGTKVEIKR
notes: also called variant comprising an alanine at position 8 of its CDRH3
As for B4, the binding result in assay [1] was “no binding”.

B5: mAb10 (antibody, V domains shown)
VH: QVQLVQSGAEVKKPGASVKVSCKVSGYILSKLSVHWVRQAPGKGLEWMGGSEREDGETVYAQKFQGRISLTEDTSIETAYMELSSLSSEDTAVYYCATGGFWSIIGGNGVDYWGQGTLVTVSS
VL: QAVVTQSPSSLPASVGDRVTITCRASQDIRNNLGWYQQKPGKAPERLIYGTSNLQSGVPSRFSGSGSGTEFTLTISSLQPEDFATYYCLQHNSYPPTFGRGTKVEIKR
notes: also called mAb2M104I
On to B5, for which the Kd with Antigen (E2) came out at 0.94 nM. In assay [1], the binding result is listed as “binds”.

B6: mAb3 (antibody)
heavy: not shown
light: QAVVTQPPSVSGAPGQRVTISCTGSSSNIGADYNVHWYQLLPGTAPKLLIYGNTNRPSGVPDRFSGSKSGTSASLAITGLQAEDEADYYCQSYDSSLSASVFGGGTKLTVLGQPKAAPSVTLFPPSSEELQANKATLVCLISDFYPGAVTVAWKADSSPVKAGVETTTPSKQSNNKYAASSYLSLTPEQWKSHRSYSCQVTHEGSTVEKTVAPTECS
notes: also called mAb1A
Regarding B6, the “Affinity Increase (fold)” value is 7.7 fold in the assay with recombinant human FcRn [2] and 2.1 fold in the assay with recombinant mouse FcRn [3]. The binding result in assay [4] and in assay [7] was “binds” each time. The dissociation constant (Kd) turned out to be 45 nM with recombinant human FcRn [5] and 9.3 nM with recombinant mouse FcRn [6].

B7: mAb5 (antibody)
heavy: not shown
light: QAVVTQPPSVSGAPGQRVTISCTGSSSNIGADYNVHWYQLLPGTAPKLLIYGNTNRPSGVPDRFSGSKSGTSASLAITGLQAEDEADYYCQSYDSSLSASVFGGGTKLTVLGQPKAAPSVTLFPPSSEELQANKATLVCLISDFYPGAVTVAWKADSSPVKAGVETTTPSKQSNNKYAASSYLSLTPEQWKSHRSYSCQVTHEGSTVEKTVAPTECS
notes: also called mAb1QL
B7: the “Affinity Increase (fold)” value with recombinant human FcRn [2] stood at 13 fold; with recombinant mouse FcRn [3], 3.3 fold. In addition, the binding result in assay [4] and in assay [7] was “binds” each time. Moreover, the Kd with recombinant human FcRn [5] came to 27 nM; with recombinant mouse FcRn [6] it was 5.9 nM.

B8: mAb4 (antibody)
heavy: QVQLVQSGAEVKKPGASVKVSCKASGYSFTSYGISWVRQAPGQGLEWMGWISTYKGYTQYAQNFQGRVTITTDTPATTVYMELRSLRSDDTAVYYCARVLSETGYFYYYYYGMDVWGQGTLVTVSSASTKGPSVFPLAPSSKSTSGGTAALGCLVKDYFPEPVTVSWNSGALTSGVHTFPAVLQSSGLYSLSSVVTVPSSSLGTQTYICNVNHKPSNTKVDKKVEPKSCDKTHTCPPCPAPELLGGPSVFLFPPKPKDTLMISRTPEVTCVVVDVSHEDPEVKFNWYVDGVEVHNAKTKPREEQYNSTYRVVSVLAVLHQDWLNGKEYKCKVSNKALPAPIEKTISKAKGQPREPQVYTLPPSRDELTKNQVSLTCLVKGFYPSDIAVAWESNGQPENNYKTTPPVLDSDGSFFLYSKLTVDKSRWQQGNVFSCSVMHEALHAHYTQKSLSLSPG
light: QAVVTQPPSVSGAPGQRVTISCTGSSSNIGADYNVHWYQLLPGTAPKLLIYGNTNRPSGVPDRFSGSKSGTSASLAITGLQAEDEADYYCQSYDSSLSASVFGGGTKLTVLGQPKAAPSVTLFPPSSEELQANKATLVCLISDFYPGAVTVAWKADSSPVKAGVETTTPSKQSNNKYAASSYLSLTPEQWKSHRSYSCQVTHEGSTVEKTVAPTECS
notes: also called mAb1AAA
Regarding B8, the “Affinity Increase (fold)” value with recombinant human FcRn [2] turned out to be 11.3 fold; with recombinant mouse FcRn [3], 2.3 fold. For the same molecule, the binding result in assay [4] and in assay [7] was “binds” throughout. For the same molecule, the values for the dissociation constant (Kd) with recombinant human FcRn [5] and in the assay with recombinant mouse FcRn [6] were 31 nM and 8.4 nM, respectively.

B9: mAb6 (antibody)
heavy: QVQLVQSGAEVKKPGASVKVSCKASGYSFTSYGISWVRQAPGQGLEWMGWISTYKGYTQYAQNFQGRVTITTDTPATTVYMELRSLRSDDTAVYYCARVLSETGYFYYYYYGMDVWGQGTLVTVSSASTKGPSVFPLAPSSKSTSGGTAALGCLVKDYFPEPVTVSWNSGALTSGVHTFPAVLQSSGLYSLSSVVTVPSSSLGTQTYICNVNHKPSNTKVDKKVEPKSCDKTHTCPPCPAPELLGGPSVFLFPPKPKDTLYITREPEVTCVVVDVSHEDPEVKFNWYVDGVEVHNAKTKPREEQYNSTYRVVSVLTVLHQDWLNGKEYKCKVSNKALPAPIEKTISKAKGQPREPQVYTLPPSRDELTKNQVSLTCLVKGFYPSDIAVEWESNGQPENNYKTTPPVLDSDGSFFLYSKLTVDKSRWQQGNVFSCSVMHEALHNHYTQKSLSLSPG
light: QAVVTQPPSVSGAPGQRVTISCTGSSSNIGADYNVHWYQLLPGTAPKLLIYGNTNRPSGVPDRFSGSKSGTSASLAITGLQAEDEADYYCQSYDSSLSASVFGGGTKLTVLGQPKAAPSVTLFPPSSEELQANKATLVCLISDFYPGAVTVAWKADSSPVKAGVETTTPSKQSNNKYAASSYLSLTPEQWKSHRSYSCQVTHEGSTVEKTVAPTECS
notes: also called mAb1YTE
B9: the “Affinity Increase (fold)” value is 16.3 fold with recombinant human FcRn [2] and 10.4 fold with recombinant mouse FcRn [3]. The binding result in assay [4] and in assay [7] was “binds” throughout. Further, the Kd was 21 nM with recombinant human FcRn [5] and 1.9 nM in the assay with recombinant mouse FcRn [6].
